# ± gives the uncertainty stated by the source.
# B1: Ankyrin repeat and SAM domain-containing protein 6, residues 774 to 836; numbered along this chain, Q68DC2 (parent)
# chain: DEDELTGILKKLSLEKYQPIFEEQEVDMEAFLTLTDGDLKELGIKTDGSRQQILAAISELNAG
# Variants of: B1
# Test: abundance fitness (aPCA) (normalised: wild type 0, dead -1); higher = more abundant; growth selection in yeast, the domain comes from the species named
# Conditions: Homo sapiens
row,Variant,abundance fitness
1,K10E,-0.084 ± 0.082
2,K10A,-0.069 ± 0.052
3,K10H,-0.406 ± 0.066
4,K10C,-1.01 ± 0.095
5,K10P,-0.525 ± 0.089
6,K10S,-0.185 ± 0.073
7,K10T,-0.049 ± 0.11
8,K10V,-0.595 ± 0.049
9,K10L,-0.656 ± 0.059
10,K10I,-0.815 ± 0.16
11,K10D,-0.663 ± 0.087
12,K10N,-0.481 ± 0.067
13,K10G,-0.56 ± 0.046
14,K10W,-0.831 ± 0.066
15,K10F,-1.16 ± 0.15
16,K10Q,-0.233 ± 0.088
17,K10R,-0.327 ± 0.052
18,S13H,0.075 ± 0.08
19,S13Y,-0.623 ± 0.12
20,S13E,-0.002 ± 0.049
21,S13L,-0.497 ± 0.056
22,S13A,-0.067 ± 0.058
23,S13V,-0.567 ± 0.094
24,S13R,-0.04 ± 0.048

row,Variant,abundance fitness
1,S13F,-0.62 ± 0.14
2,S13D,0.131 ± 0.073
3,S13Q,0.042 ± 0.053
4,S13P,-0.736 ± 0.078
5,S13T,-0.127 ± 0.051
6,S13I,-0.202 ± 0.21
7,S13N,0.039 ± 0.1
8,S13W,-0.472 ± 0.072
9,F21K,-0.556 ± 0.082
10,F21I,-0.615 ± 0.17
11,F21H,-0.629 ± 0.058
12,F21E,-0.36 ± 0.092
13,F21V,-0.595 ± 0.095
14,F21A,-0.348 ± 0.058
15,F21R,-0.609 ± 0.049
16,F21T,-0.589 ± 0.081
17,F21P,-0.65 ± 0.098
18,F21C,-0.697 ± 0.2
19,F21S,-0.615 ± 0.06
20,F21W,-0.847 ± 0.096
21,F21G,-0.579 ± 0.079
22,F21N,-0.553 ± 0.16
23,F21L,-0.222 ± 0.048
24,F21M,-0.372 ± 0.077

row,Variant,abundance fitness
1,I8H,-0.189 ± 0.072
2,I8K,-0.162 ± 0.044
3,I8V,-0.072 ± 0.1
4,I8M,0.145 ± 0.078
5,I8N,-0.192 ± 0.1
6,I8R,-0.238 ± 0.038
7,I8A,0.158 ± 0.075
8,I8C,-0.029 ± 0.088
9,I8D,-0.51 ± 0.1
10,I8Y,-0.186 ± 0.078
11,I8F,-0.131 ± 0.16
12,I8E,-0.206 ± 0.079
13,I8Q,0.105 ± 0.089
14,I8S,-0.265 ± 0.066
15,I8T,-0.058 ± 0.065
16,I8P,-1.03 ± 0.13
17,I8L,0.149 ± 0.061
18,I8W,-0.163 ± 0.058
19,Q18T,-0.076 ± 0.075
20,Q18P,-0.786 ± 0.092
21,Q18S,-0.075 ± 0.075
22,Q18H,-0.221 ± 0.17
23,Q18V,-0.12 ± 0.057
24,Q18E,-0.119 ± 0.046

row,Variant,abundance fitness
1,Q18A,0.07 ± 0.054
2,Q18M,-0.035 ± 0.068
3,Q18F,-0.407 ± 0.08
4,Q18C,-0.146 ± 0.09
5,Q18L,-0.092 ± 0.052
6,Q18W,-0.31 ± 0.057
7,Q18D,-0.344 ± 0.17
8,Q18Y,-0.539 ± 0.2
9,Q18I,-0.051 ± 0.12
10,Q18N,-0.538 ± 0.5
11,Q18R,-0.025 ± 0.071
12,Q18G,-0.078 ± 0.057
13,L14H,-1.01 ± 0.34
14,L14W,-0.946 ± 0.088
15,L14M,-0.303 ± 0.058
16,L14V,-0.655 ± 0.069
17,L14E,-0.777 ± 0.1
18,L14C,-0.64 ± 0.078
19,L14I,-0.332 ± 0.095
20,L14K,-0.918 ± 0.12
21,L14A,-0.94 ± 0.084
22,L14T,-1.37 ± 0.16
23,L14Y,-0.97 ± 0.12
24,L14G,-1.05 ± 0.083

row,Variant,abundance fitness
1,L14P,-0.845 ± 0.1
2,L14F,-0.583 ± 0.12
3,L14N,-1.42 ± 0.41
4,L14Q,-1.17 ± 0.21
5,K16H,0.011 ± 0.19
6,K16I,-0.408 ± 0.18
7,K16P,0.001 ± 0.066
8,K16R,-0.203 ± 0.054
9,K16M,-0.084 ± 0.086
10,K16C,-0.083 ± 0.073
11,K16Q,-0.253 ± 0.13
12,K16V,-0.113 ± 0.063
13,K16Y,-0.251 ± 0.066
14,K16G,-0.135 ± 0.046
15,K16A,0.074 ± 0.046
16,K16S,-0.103 ± 0.071
17,K16E,0.175 ± 0.076
18,K16F,-0.339 ± 0.14
19,K11N,-0.254 ± 0.1
20,K11D,-0.166 ± 0.079
21,K11T,-0.428 ± 0.078
22,K11H,-0.621 ± 0.2
23,K11S,-0.305 ± 0.058
24,K11Y,-0.553 ± 0.087

row,Variant,abundance fitness
1,K11E,-0.391 ± 0.12
2,K11L,-0.363 ± 0.044
3,K11M,-0.195 ± 0.11
4,K11R,-0.071 ± 0.053
5,K11A,-0.15 ± 0.06
6,K11P,-0.689 ± 0.061
7,K11G,-0.224 ± 0.064
8,K11Q,-0.099 ± 0.13
9,L5D,-1.01 ± 0.11
10,L5V,-0.18 ± 0.056
11,L5E,-1.07 ± 0.15
12,L5R,-0.71 ± 0.087
13,L5K,-0.895 ± 0.15
14,L5Y,-0.504 ± 0.12
15,L5H,-0.839 ± 0.13
16,L5S,-0.84 ± 0.1
17,L5M,-0.116 ± 0.15
18,L5P,-0.559 ± 0.092
19,L5I,-0.05 ± 0.16
20,L5Q,-0.639 ± 0.13
21,L5A,-0.864 ± 0.068
22,L5G,-0.969 ± 0.12
23,Y17C,-0.255 ± 0.096
24,Y17G,-0.399 ± 0.054

row,Variant,abundance fitness
1,Y17W,-0.043 ± 0.062
2,Y17P,-0.756 ± 0.045
3,Y17V,-0.355 ± 0.063
4,Y17T,-0.509 ± 0.081
5,Y17E,-0.026 ± 0.068
6,Y17L,-0.127 ± 0.05
7,Y17S,-0.49 ± 0.059
8,Y17H,-0.505 ± 0.14
9,Y17M,0.031 ± 0.06
10,Y17N,-0.344 ± 0.14
11,Y17D,-0.322 ± 0.091
12,Y17F,-0.045 ± 0.039
13,Y17Q,-0.339 ± 0.088
14,Y17K,-0.426 ± 0.072
15,Y17A,-0.561 ± 0.064
16,L12G,-0.927 ± 0.078
17,L12A,-0.439 ± 0.082
18,L12W,-0.061 ± 0.054
19,L12V,-0.369 ± 0.054
20,L12E,-0.949 ± 0.18
21,L12M,0.038 ± 0.064
22,L12K,-0.256 ± 0.09
23,L12D,-1.08 ± 0.21
